The nanobody polyreactivity screen of Harvey et al. (2022)

Assay: yeast display, Sf9 membrane polyspecificity reagent, FACS + sequencing; frameworks hold sequencing errors
How it was run: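 In a synthetic yeast display library (Saccharomyces cerevisiae BJ5465), nanobody expression was induced with galactose for 36–48 hours. FACS gates were set low and high (top ~1%) using anti-HA fluorescence for expression and streptavidin fluorescence for binding of the Sf9 membrane reagent. Each polyreactivity label is drawn from the gate of origin.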

Row | Sequence | polyreactivity (PSR sort gate)
1 | QVQLVESGGGLVQAGGSLRLSCAASGIIFNWYAMGWYRQAPGKERELVAAISGSGDITYYADSVKGRFTISRDNAKNTVYLQMNSLKPEDTAVYYCAADPWTYWEDYDYWGQGTQVTVSS | low polyreactivity
2 | QVQLVESGGGLVQAGGSLRLSCAASGRTFGRYAMGWYRQAPGKERELVARISFSGGSTHYADSVKGRFTISRDNAKNTVYLQMNSLKPEDTAVYYCNTDWYRNWGKPYYYWGQGTQVTVSS | high polyreactivity
3 | QVQLVESGGGLVQAGGSLRLSCAASGSIFSQYVMGWYRQAPGKERELVAAISSGGITYYADSVKGRFTISRDNAKNTVYLQMNSLKPEDTAVYYCNKTSWYQYGYWGQGTQVTVSS | low polyreactivity
4 | QVQLVESGGGLVQAGGSLRLSCAASGSIFVHNDMGGYRQAPGTERELVATIDSAGGTYYADSVKGRFTISRDNAKYTVYLQMNSLKPEDTAVYYCAAYGPYVLSIYDYWGQGTQVTVSS | low polyreactivity
5 | QVQLVESGGGLVQAGGSLRLSCAASGITFKTYAMGWYRQAPGKERELVATINRGSRTNYADSVKGRFTISRDNAKNTVYLQMNSLKPEDTAVYYCAAHYTTFIPSPDGDYLGQGTQVTVSS | low polyreactivity
6 | QVQLVESGGGLVQAGGSLRLSCADSGFILWYNAMGWYRQAPGKERELVARIDVRGGSTYYADSVKGRFTISRDNAKNTVYLQMNSLKPEDTAVYYCARKRQGPASRARYDYWGQGTQVTVSS | low polyreactivity
7 | KVQLVESGAGLVQAGGSLRFSCAASGSIFIVYAMGWYRPAPGKERELVADITNGGDTNYADSVKGRFTISRDNAKNTVYLQMNSLKPEDTAVYYCAKYLWSYRVRTNVWRSYYWGQGTQVSVSS | high polyreactivity
8 | QVQLVESGGGLVQAGGSLRLSCAASGSTFNPYAMAWYRQAPGKEREFVAAISWRGGSTYYADSVKGRFTISRDNAKNTVYLQMNSLKPEDTAVYYCAARRLYSHTTSGRGYWGQGTQVTVSS | high polyreactivity
9 | QVQLVESGGGLVQAGGTLRLSCAASGRTFTSYTMGWYRQAPGKERELVATISFGGGRTYADSVKGRFTISRDNAKNTVYLQMNSLKTEDTAVYYCNAGYYWRLHWWYYYWGQGTQVTVSS | high polyreactivity
10 | QVQLVESGGGLVQAGGSLRLSCSASGYTFSSYGMGWYRQAPGKERELVAAITGSTGTTYYADSVQGRFTISRDNAKNTVYLQMISLKPEDTAVYYCAAEYQSYPWYDYWGQGTQVTVSS | high polyreactivity
11 | QVQLQESGGGLVQAGGSLRLTCAASGSISAVAAMGWYRQAPGKEREFAASVNWGTNTNYADSLKGRFTISRDNAINTLYLQMNSLNPEDTAVYYCGVLPDWETRHDYWGHGTQVTVSS | low polyreactivity
12 | QVQLVESGAGLVQAGGSLRVSCAASGSIFSYYTMGWYRQPPGKERELVAAITYRGGSTYYADSVKGRFTISRDNAKNTVYLQRNSLKPEDTAVYYCAARTRNGAGYYWGQGTQVTVSS | high polyreactivity
13 | QVQLVESGGGLVQAGGSLRLSCAASGYTFYANAMGWYRQAPGKEREFVASITWSGGSTYYADSVKGRFTISRDNAKNNVYLQMHSLKPEDTAVYYCAAESWFKYDYWGQGTQVTVSS | low polyreactivity
14 | QVQLVESGGGLVQAGGSLRLSCAASGRILVFYAMGGYRQAPGIERELVAAISKSVRPTYYADSVKGRFTISRDNAQNTVYLQMNSLKPEDTAVYYCNTRSASDLWPQYGYWGQGTQVTVSS | low polyreactivity
15 | QVQLVESGGGLVQAGGSLRLSCAASGRIFTYNAMGWYRQAPGKERELVAAITRGGTTNYADSVKGRFTISRDNAKNTVYLQMNSLKPEDTAVYYCARAGAHPWWSRSTMYYWGQGTQVTVSS | low polyreactivity
16 | QVQLVESGGGLVQAGGSLRLSCAASGRTFGYYAMGWYRKAPGKERELVAAISWRGTSTYYADSVKGRFTISRDNAKNTVYLQMNSLKPEDTAVYYCAVGRTVAHRFIAGDYWGQGTQVTVSS | high polyreactivity

Row | Sequence | polyreactivity (PSR sort gate)
17 | QVQLVESGGGLVQAGGSLRLSCAASGSIFYPYARGWYRQAPGKERELVASITINDGSTYYADSVKGRFTISRDNAKNTVYLQMNSLKPADTAVYYSAVDWLSVTSTIKFEMDYWGQGTQVTVSS | low polyreactivity
18 | QVQLVESGGGLVQAGGSLRLSCAASGSIFKYYTMGWYRQAPGKERELVAAITYTGGRTYYADSVKGRFTISRDNAKNTVYLQMNSPKPEDTAVYYCAKDGPATVRRGYDYWGQGTQVTVSS | high polyreactivity
19 | QVQLVESGGGLVQAGGSLRLSCAASGNIFYRNAMGWYRQAPGKERELVAGITTSGDSTYYADSVKGRFTISRDNAKNTVYLQMNSLKPEDTAVYYCAASSHRYKYSSSYYYWGQGTQVTVSS | high polyreactivity
20 | QVQLVESGGGLVQAGGSLRLSCAASGRIFRYYAMGWYRQAPGKERELVATISSSGGSTYYADSVKGRFTISRDNAKNTVYLQMNSLKPEDTAVYYCAADWYGYRQFHGYYWGQGTQVTVSS | high polyreactivity
21 | QVQLVESGGGLVQAGGSLRLSCAASGFTFYYNAMGWYRQAQGKERELVAAMSRSGGRTYYADSVKGRFTISRDNAKNTVYLQMNSLKPEDTAVYYCNRRTRPDGGESDYWGQGTLVTVSS | high polyreactivity
22 | QVQLVESGGGLVQAGGSLRLSCAASGRTFGGNAMGWYRQAPGKERELVAAINSDGGRTYYADSVKARFTISRDNAKNTVYLQMNSLKPEDTAVYYCNRAYRKSYTGYGYDYWGQGTQVTVSS | high polyreactivity
23 | QVQLVESGGGLDQAGGSLRLSCAASGITLTNNAMGWYRQAPGKERELVAAITRSGGSTYYADSVKGRFTISRDNAKNTVYLQMNSLKPEDTAVYCAARWYSYSGSIRSYDYCGQGTQVTVSS | low polyreactivity
24 | QVQLVESGGGLVQAGGSLRLLCAASGFTFGFNAMGWYRQAPGKERELVAAISRGGSTNYADSVKGLFTISRDNAKNTVYLQMNSLKPEDTAVYYCAADVITYVFRFYYWGQGTQVTVSS | low polyreactivity
25 | QVQLVESGGGLVQAGGSLRLSCAASGITFYDNVMGWYIQAPGKERELVAAITSGGSTNYADSVKGRFTISRDNAKNTVYLQMNSLKPEDTAVYYCAAQPRVDYEFPYRYGYWGQGTQVTVSS | low polyreactivity
26 | QVQLVESGGVLVQAGGSLRLSCAASGSTFYRYAMGWYRQAPGKERELVAANTRGSRTYYADSVKGRFTISRDNAKNTVYLQMNSLKPEDTAVYYCAAYRDYGSYGSWGQGTQVTVSS | high polyreactivity
27 | QVQLVESGGGLVQAGGSLRLSCAASGIIFYKYAMGWYRQAPGKERELVAAITSGGGRTYYADSVKGRFTISRDNAKNTVYLQMNSLKPEDTAVYYCAATRPATYAAYDYWGQGTQVTVSS | high polyreactivity
28 | QVQLVQSGGGLVQAGGSLRLSCAASGRTFYYYPMGWYRPAPGKERELVAAIRWRGGRTYADSVKGRFTISRDNAKNTVYLQMNSLKPEDTAVYYCAVESFYRHASLYDYWGQGTQVTVSS | high polyreactivity
29 | QVQLVESGGGLVQAGGSLRLSCAASGRIFSGYAMGWYRQAPGKERELVAAITSRSGSTYYADSVKGRFTISRDNAKNTVYFQMNSLKPEDTAVYYCAAEYVRFYWYTSDYWGQGTQVTVSS | low polyreactivity
30 | QVQLVESGGGLVQAGGSLRLSCAASGRTFYVYAMGWYRQAPGKVSELVAAISASGGRTYYADSVKGGFTISRDNAKNTVYLQMNSLKPEDTAVYYCAAEGRRGGKDYDYWGQGTQVTVSS | high polyreactivity
31 | QVQLVESGRGLVHAGGSLRISCAASGSTYTWNVMGWYRQAPGKERELVADINSGADTSYADSVKGRFTISRDNAKNTVYLQMNSLKPEDTGVYYCAADIYVYDYWGQGTQVTVSS | low polyreactivity
32 | QVQLVESGGGLVQAGGSLRLSCAASGSIFYINTMGWYRQPPGKERELVAAINFSDGRTYYADSVKGRFTISRDNAKNTVYLQMNSLKPEDTAVYYCAADVYPSEYDYWGQGTQVTVSS | low polyreactivity
